The text below walks through data of doi:10.1101/2021.02.27.433148.

Read-outs that look alike come from different tables or passages of the source.

In data set [1] the target is human norovirus GII.4 Saga P-domain (native, Asn373) (human norovirus GII.4 Saga). Briefly: native MS.
The target in data set [2] is human norovirus GII.4 Saga P-domain, fully deamidated at position 373 (iso-aspartate) (human norovirus GII.4 Saga).
The target of data set [3] is murine norovirus (MNV) CR10 P-domain (murine norovirus, strain CR10) (UniProt Q80J94). Briefly: native MS.
The subject of the next data set is Q80J94. Briefly: SEC. (Size exclusion chromatography separates by hydrodynamic size, large species first.)
For data set [4], the target named is murine norovirus (MNV) CW1 P-domain (murine norovirus, strain CW1) (UniProt Q80J94). Briefly: NMR titration.
Data set [5] has the same target. Briefly: NMR titration. This is another data set of the same source.
The target is the same in data set [6]. Briefly: SEC.
The target is the same in data set [7]. The data set is described as follows: SEC. The source holds these as a separate data set.

One may read the stoichiometry N as the number of molecules, sites or subunits per partner or assembly. The koff is a measure of how fast the partners let go of each other. Low values mean slow dissociation, high ones fast dissociation. Usually Kd stands for the free concentration of one partner at which half of the binding sites on the other are occupied at equilibrium, for simple one-to-one binding. As a reminder, the kon is a measure of how fast the partners come together. Read a high kon as fast association.

Consider “human norovirus GII.4 Saga P-domain (native, Asn373) (domain or fragment)”, for which, in data set [1], the stoichiometry N worked out at 2.

“human norovirus GII.4 Saga P-domain point mutant N373Q (domain or fragment)” registered a koff in data set [2] of 1.5e-06 s⁻¹.

In data set [3], “murine norovirus (MNV) CR10 P-domain (from UniProt Q80J94 229-531) (domain or fragment)” returned a dissociation constant (Kd) of 32 µM and a stoichiometry N of 2.

Regarding murine norovirus (MNV) CW1 P-domain, the “kex (printed as dissociation rate constant kex, from SEC peak tailing)” value in the data set on Q80J94 was determined as 0.03 s⁻¹.

In data set [4], “murine norovirus (MNV) CW1 P-domain (from UniProt Q80J94 225-541) (domain or fragment)” gave a Kd of 31 µM and a dimer half-life t1/2 of 17 s. In data set [5], this substance returned a Kd of 12.5 µM, a koff of 0.035 s⁻¹ and an on-rate (kon) of 2800 M⁻¹ s⁻¹. The same substance displayed a stoichiometry N in data set [6] of 2. In data set [7], this substance returned a Kd of 40 µM and a stoichiometry N of 2.
